Experimental data taken from patent publication US20220017632A1 (HANX BIOPHARMACEUTICS, published 2022).

T1: human fusion protein hOX40-HIS (human, UniProt P43489 29-216, limits assumed)
T1 construct: it looks like the extracellular region; also called hOX40-HIS antigen; human OX40 antigen
T1 sequence: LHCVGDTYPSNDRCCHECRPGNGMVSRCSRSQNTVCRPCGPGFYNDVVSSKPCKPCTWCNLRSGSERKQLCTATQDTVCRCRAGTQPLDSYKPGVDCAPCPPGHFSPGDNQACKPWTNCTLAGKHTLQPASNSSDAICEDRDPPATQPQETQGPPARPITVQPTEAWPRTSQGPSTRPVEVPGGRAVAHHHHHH

T2: hOX40 protein on the cell membrane surface (293T-OX40 stably transfected cells) (human, UniProt P43489 29-277)
T2 construct: whole, on cells; also called hOX40 on the surface of the cell membrane; 293T cells expressing hOX40
T2 sequence (looked up): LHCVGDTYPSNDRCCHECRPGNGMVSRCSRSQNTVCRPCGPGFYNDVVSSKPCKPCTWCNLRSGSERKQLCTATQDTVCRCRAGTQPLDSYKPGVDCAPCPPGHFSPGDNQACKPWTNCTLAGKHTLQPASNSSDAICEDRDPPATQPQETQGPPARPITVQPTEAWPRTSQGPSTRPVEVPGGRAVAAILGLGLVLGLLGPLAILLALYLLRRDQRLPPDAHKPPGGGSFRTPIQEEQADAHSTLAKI

T3: murine OX40 antigen (murine, UniProt P47741 20-211, limits assumed)
T3 sequence (looked up): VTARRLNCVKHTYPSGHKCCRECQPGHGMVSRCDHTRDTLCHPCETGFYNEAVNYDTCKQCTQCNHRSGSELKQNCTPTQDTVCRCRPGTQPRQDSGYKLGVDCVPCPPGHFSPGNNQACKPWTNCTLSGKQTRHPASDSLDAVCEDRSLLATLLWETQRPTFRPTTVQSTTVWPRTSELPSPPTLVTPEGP


Key:
[1] = target: T1, human fusion protein hOX40-HIS; experiment: ELISA, coated hOX40-HIS; antibody 3.2 ng/ml; well 2
Description: (§1) For the hybridoma antibodies prepared in Example 1, the specific binding of different antibodies to hOX40 was detected by the following steps:
(§2) 3) addition of the primary antibody: preparing the four antibodies to a concentration of 2 μg/ml, and diluting 1:5 from the 2 μg/ml as the starting concentration to 7 gradient concentrations (that is, the concentrations of 2μg/ml, 400 ng/ml, 80 ng/ml, 16 ng/ml, 3.2 ng/ml, 0.64 ng/ml, 0.128 ng/ml, respectively). The prepared primary antibodies were added individually, and incubated at 30° C. for 1 hour; PBS was used as the blank control group;

[2] = target: T1, human fusion protein hOX40-HIS; experiment: ELISA, coated hOX40-HIS; antibody 16 ng/ml; well 1
Description: as §1, §2

[3] = target: T1, human fusion protein hOX40-HIS; experiment: ELISA, coated hOX40-HIS; antibody 80 ng/ml; well 2
Description: as §1, §2

[4] = target: T1, human fusion protein hOX40-HIS; experiment: ELISA, coated hOX40-HIS; antibody 2000 ng/ml; well 1
Description: as §1, §2

[5] = target: T1, human fusion protein hOX40-HIS; experiment: ELISA, coated hOX40-HIS; antibody 16 ng/ml; well 2
Description: as §1, §2

[6] = target: T1, human fusion protein hOX40-HIS; experiment: ELISA, coated hOX40-HIS; antibody 0.128 ng/ml; well 1
Description: as §1, §2

[7] = target: T1, human fusion protein hOX40-HIS; experiment: ELISA, coated hOX40-HIS; antibody 400 ng/ml; well 2
Description: as §1, §2

[8] = target: T1, human fusion protein hOX40-HIS; experiment: ELISA, coated hOX40-HIS 0.6 ug/ml
Description: as §2
The ELISA test results are shown in Table 1, in which, the EC₅₀ value represents the half-maximal effect concentration, that is, the concentration that can cause 50% of the maximum effect.

[9] = target: T1, human fusion protein hOX40-HIS; experiment: ELISA, coated hOX40-HIS; antibody 80 ng/ml; well 1
Description: as §1, §2

[10] = target: T1, human fusion protein hOX40-HIS; experiment: ELISA, coated hOX40-HIS; antibody 2000 ng/ml; well 2
Description: as §1, §2

[11] = target: T1, human fusion protein hOX40-HIS; experiment: ELISA, coated hOX40-HIS; antibody 0.64 ng/ml; well 1
Description: as §1, §2

[12] = target: T1, human fusion protein hOX40-HIS; experiment: ELISA, coated hOX40-HIS; antibody 400 ng/ml; well 1
Description: as §1, §2

[13] = target: T1, human fusion protein hOX40-HIS; experiment: ELISA, coated hOX40-HIS; antibody 0.128 ng/ml; well 2
Description: as §1, §2

[14] = target: T1, human fusion protein hOX40-HIS; experiment: ELISA, coated hOX40-HIS; antibody 3.2 ng/ml; well 1
Description: as §1, §2

[15] = target: T1, human fusion protein hOX40-HIS; experiment: ELISA, coated hOX40-HIS; antibody 0.64 ng/ml; well 2
Description: as §1, §2

[16] = target: T1, human fusion protein hOX40-HIS; experiment: SPR, ProteOn XPR, hOX40-HIS immobilized on GLM chip, antibody as analyte
Description: The ProteOn XPR molecular interaction instrument may be used to detect the kinetics and affinity constants of the interaction between different drugs and a variety of different target proteins. 250 nM hOX40-HIS antigen ([…] hOX40 antigen) was immobilized on the surface of the GLM chip, and after equilibrating in PBST, was allowed to bind to the antibody 9C12 diluted twice in PBST to the concentration of 50, 25, 12.5, 6.25, 3.125, 0 nM, respectively, and then dissociated in PBST.

[17] = target: T4, monkey OX40 antigen (monkey); experiment: ELISA, coated monkey OX40-HIS 0.25 ug/ml
T4 construct: also called Monkey OX40-HIS antigen
Description: (§3) Human OX40 antigen, monkey OX40 antigen and murine OX40 antigen were used for coating respectively to detect whether OX40 antibody cross-reacts with OX40 protein of different species, through the following steps:
(§4) 3) addition of the primary antibody: preparing antibody 9C12 to a concentration of 2 μg/ml, and diluting 1:5 from the 2 μg/ml as the starting concentration to […] 7 gradient concentrations (that is, the concentrations of 2 μg/ml, 400 ng/ml, 80 ng/ml, 16 ng/ml, 3.2 ng/ml, 0.64 ng/ml, 0.128 ng/ml, respectively). PBS was used as the blank control group. The prepared primary antibodies were added individually, and incubated at 30° C. for 1 hour;

[18] = target: T2, hOX40 protein on the cell membrane …; experiment: flow cytometry on 293T-OX40 cells
Description: In this experiment, 293T-OX40 stably transfected cell lines were used as the experimental cells, and the FACS method was used to detect the binding of 9C12 to the hOX40 protein on the cell membrane surface. The specific procedure is as follows:
293T cells expressing hOX40 were digested, and prepared to a final concentration of 10⁶ cells/ml. 100 μl of cell suspension from each group was added into a 1.5 ml EP tube. Various concentrations of 9C12 antibody (10000 ng/ml, 4000 ng/ml, 2000 ng/ml, 1000 ng/ml, 500 ng/ml, 200 ng/ml, 20 ng/ml, 2 ng/ml) were added, and incubated on ice for 1 hour. After 1 hour, the tube was washed with HBSS once. Each group was added with prepared APC goat anti-human IgG secondary antibody, incubated on ice for 20 minutes in the dark, washed once with HBSS, and finally suspended with 200 μl of HBSS, and the cells were tested.

[19] = target: T1, human fusion protein hOX40-HIS; experiment: ELISA, coated human OX40-HIS 0.25 ug/ml
Description: as §3, §4

[20] = target: T3, murine OX40 antigen; experiment: ELISA, coated murine OX40 antigen 0.25 ug/ml
Description: as §3, §4

| Binder | absorbance at 450 nm [1] | absorbance at 450 nm [2] | absorbance at 450 nm [3] | absorbance at 450 nm [4] | absorbance at 450 nm [5] | absorbance at 450 nm [6] | absorbance at 450 nm [7] | EC50 [8] [nM] | absorbance at 450 nm [9] | absorbance at 450 nm [10] | absorbance at 450 nm [11] | absorbance at 450 nm [12] | absorbance at 450 nm [13] | absorbance at 450 nm [14] | absorbance at 450 nm [15] | Kd [16] [nM] | koff [16] [s⁻¹] | kon [16] [M⁻¹ s⁻¹] | also measured |
| --- | --- | --- | --- | --- | --- | --- | --- | --- | --- | --- | --- | --- | --- | --- | --- | --- | --- | --- | --- |
| antibody 1D9 (antibody, V domains shown, Purified mouse hybridoma antibody; also called 1D9 antibody; 1D9 Ab) VH: EVQLQQSGPELVKPGALVKISCKASGYTFTNYDINWVKQRPGQGLEWIGWIYPEDGSTKYNEKFKGKATLTADKSSSTAYMQLSSLTSENSAVYFCARDTRGYFDYWGQGTTLTVSS VL: DIVMTQTTAIMSASLGEKVTMSCRASSSVNYIYWYQQKSDASPKLWIYYTSNLAPGVPARFSGSGSGNSYSLTISSMEGEDAATYYCQQFTSSPWTFGGGTKLEFKR | 0.066 | 0.104 | 0.287 | 2.95 | 0.123 | 0.053 | 1.12 | 10.8 | 0.316 | 3.08 | 0.051 | 1.11 | 0.052 | 0.061 | 0.053 |  |  |  |  |
| antibody 8A7 (antibody, V domains shown, Purified mouse hybridoma antibody; also called 8A7 antibody; 8A7 Ab) VH: QVQLQESGPSHVKPSQTLSLTCSVTGDSITSGYWNWIRKFPGNKLEYLGYISFSGNTYYNPSLKSRISIIRDTSKNQYYLQLNSVTTEDTATYYCARYPYSYSNWDYAMDYWGQGTSVTVSS VL: DIVMTQSPSSLVVSVGEKVTMSCKSSQFLLYSSSQKNYLAWYQQKPGQSPQLLIYWASTRESGVPDRFTGSGSGTDFTLTISSVKAEDLAVYYCHQYYSYPLTFGAGTKLELK | 0.094 | 0.272 | 0.87 | 1.93 | 0.288 | 0.05 | 1.66 | 0.727 | 0.894 | 1.98 | 0.059 | 1.64 | 0.056 | 0.096 | 0.058 | 20.8 | 0.000567 | 27300 |  |
| antibody 9C12 (antibody, V domains shown, Purified mouse hybridoma antibody; also called 9C12 antibody; 9C12 Ab) VH: QVQLQQSGGGLVKPGGSLKLSCAASGFTFSDYYMYWVRQTPEKRLEWVATISDGGSNTYYPDSVKGRFTISRDNAKNNLYLQMSSLKSEDTATYYCARRGTGTGFGYWGQGTLVTVSA VL: DIVLTQTTASLSVSVGETVTITCRASENIYSTLAWYQQKQGKSPQLLVYAATNLVAGVPSRFSGSGSGTQYSLKINSLQSEDFGSYYCQHFWGIPWTFGGGTKLEIK | 1.51 | 2.4 | 2.51 | 2.72 | 2.25 | 0.147 | 2.52 | 0.017 | 2.59 | 2.68 | 0.464 | 2.59 | 0.138 | 1.58 | 0.464 | 0.151 | 6.73e-05 | 445000 | EC50 [17]: 0.01 nM; EC50 [18]: 2.84 nM; EC50 [19]: 0.012 nM; binding result [20]: no binding (tested: 2000 ng/ml) |
